Test results taken from doi:10.1101/247882 (bioRxiv, 2018).

T1: Synechocystis OCP lacking the N-terminal extension, construct OCP_(13-317), holoprotein (Synechocystis sp. PCC 6803, UniProt P74102 13-317)
T1 sequence: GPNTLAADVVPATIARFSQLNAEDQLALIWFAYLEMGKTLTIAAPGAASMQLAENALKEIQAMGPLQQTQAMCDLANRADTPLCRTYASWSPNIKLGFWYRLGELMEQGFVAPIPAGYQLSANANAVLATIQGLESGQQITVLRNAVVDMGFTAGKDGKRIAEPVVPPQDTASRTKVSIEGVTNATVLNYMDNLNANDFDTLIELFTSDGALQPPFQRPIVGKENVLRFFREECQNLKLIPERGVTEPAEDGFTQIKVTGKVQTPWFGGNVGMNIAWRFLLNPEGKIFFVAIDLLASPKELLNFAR

B1: Synechocystis FRP (fluorescence recovery protein), wild-type construct with uncleavable N-terminal His6 tag and linker (natural protein)
chain: LQTAEAPWSQAETQSAHALFRKAYQRELDGLLATVQAQASQITQIDDLWKLHDFLSAKRHEIDGKYDDRQSVIIFVFAQLLKEGLVQAEELTFLAADKQSKIKALARL
B2: Arthrospira maxima FRP (natural protein)
chain: MSEINWSEQDKNAAVDALHKAYEREVKILIDEVKQKAFNLTEIDEVWKLHDFLSARRHDIDGKYDYRDAASVFVLATLVKQGWLSLEELQVLGQDKLAKISALTRL

Experiments:
[1] = target: Truncated Synechocystis FRP spanning amino acids 8-109 (Synechocystis sp. PCC 6803); test: SEC-MALS + other: SAXS
[2] = target: T1, Synechocystis OCP lacking the …; test: SEC-MALS
[3] = target: the molecule itself; test: SAXS

Molecule	stoichiometry N [1]	stoichiometry N [2]	stoichiometry N [3]
Truncated Synechocystis FRP spanning amino acids 8-109 (domain or fragment)	2	–	–
B1	–	2 FRP per OCP	–
B2	–	1 FRP per OCP	2
